Data from patent US20120014950A1, “Antibodies That Specifically Bind to DR3” (Xencor, Inc., priority 2010, published 2012).
Residue numbers refer to the chain shown, from its start. Entries after “also recorded” stand apart in the source; their conditions may differ.

Columns and labels:
human DR3 [1] = target: T1, human DR3 (Homo sapiens, UniProt Q93038); assay: TF-1 assay (cell viability, cycloheximide, Cell Titer Glo); type: cell-based; parameters: endogenous in cells; host or cells: TF-1 (premyeloid); details: TF-1 cells, 10 ng/mL hTL1A and cycloheximide; luminescence
T1 sequence (Q93038 25-417): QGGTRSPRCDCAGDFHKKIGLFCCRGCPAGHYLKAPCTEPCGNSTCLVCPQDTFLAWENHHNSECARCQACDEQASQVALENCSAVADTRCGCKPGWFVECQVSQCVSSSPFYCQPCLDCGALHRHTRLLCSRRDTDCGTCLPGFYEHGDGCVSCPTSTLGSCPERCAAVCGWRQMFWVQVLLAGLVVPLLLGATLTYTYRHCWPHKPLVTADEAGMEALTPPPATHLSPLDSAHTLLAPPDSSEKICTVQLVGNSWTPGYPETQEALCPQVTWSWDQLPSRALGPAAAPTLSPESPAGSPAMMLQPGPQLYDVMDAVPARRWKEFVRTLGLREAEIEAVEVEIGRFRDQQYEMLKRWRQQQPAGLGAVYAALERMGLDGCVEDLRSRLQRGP
Protocol: Treatment of TF-1 cells with human TL1A (the ligand for DR3) in the presence of cycloheximide induces cell death (Migone et al., Immunity 16:479-492 (2002)). A TF-1 assay was used to test the ability of 11H08 to block TL1A activity through the DR3 receptor.
A TF-1 assay can be performed according to methods known in the art. Briefly, premyeloid TF-1 cells are maintained in 10% FBS (fetal bovine serum), 1×RPMI, 1% Pen-Strep with Glutamine, and 2 ng/mL GM-CSF. The cells are grown until log phase, washed three times in PBS, and incubated with the antibodies to be tested for one hour. After this pre-incubation, between 50,000 and 100,000 cells are seeded per well. The cells are combined with 10 ng/mL hTL1A, 10 μg/mL cycloheximide (Sigma-Aldrich, cat #C1988-1G) and the antibodies to be tested and then incubated for 24 to 72 hours. Cell viability is measured using Cell Titer Glo (Promega, cat #G7570). This assay allows cell viability to be determined by measuring the luminescent signal which is proportional to the amount of ATP present. The ATP is indicative of metabolically active cells and higher luminescence signals reflect greater cell viability.
In order to test the effect of 11H08-scFv-HSA and the humanized anti-DR3-Fab molecules, a TF-1 assay was used to test the ability of these various anti-DR3 fragments to block TL1A induced activity. The TF-1 assay was performed as indicated above in Example 5, but where the various anti-DR3 fragments were used instead of the whole 11H08 immunoglobulin as described.

primary human T cells = assay: Primary human T cell assay (proliferation, cytokine secretion); type: cell-based
Protocol: A primary human T cell assay can be performed using standard methods known in the art. Briefly, primary human T cells are incubated with 100 ng/mL human TL1A ligand and appropriate concentrations of the antibody molecules to be tested for 72 hours. This incubation is followed by a 24 hour incubation with 5 ng/mL IL-2. Proliferation is measured by a standard luminescent protocol. The amount of cytokine secreted is determined by standard methods in the art.
A primary human T cell assay was performed to determine the effect of the 11H08-Fab-HSA on proliferation and the secretion of IFNγ or GM-CSF from cells treated with TL1A. […] 3 μg/mL 11H08-Fab-HSA, 3 μg/mL hDR3-Fc, or 3 μg/mL full length 11H08 immunoglobulin were used in this experiment. Results were compared to a set of cells treated only with media and cells that were treated only with 100 ng/mL TL1A, as indicated.

human DR3 [2] = target: T1, human DR3; assay: TF-1 assay (cell viability, cycloheximide, Cell Titer Glo); type: cell-based; parameters: endogenous in cells; host or cells: TF-1 (premyeloid); details: TF-1 cells with cycloheximide; luminescence
human DR3 [3] = target: T1, human DR3; assay: TL1A binding inhibition assay (flow cytometry); parameters: expressed in transfected cells; host or cells: HEK293F (transient); details: HEK293F cells transiently expressing human DR3, 1 μg/mL human TL1A
Protocol: The anti-DR3 monoclonal antibody 11H08 was assayed for its ability to inhibit human TL1A binding to human DR3 using techniques known to those skilled in the art. Briefly, HEK293F cells transiently expressing human DR3 were incubated with 1 μg/mL of human TL1A in the presence of either an unrelated antibody (mIgG1) as an isotype control that was known not to bind TL1A or DR3, or an anti-DR3 monoclonal antibody (11H08), for 20 minutes at room temperature. Binding was detected using an anti-TL1A-biotin polyclonal antibody followed by Streptavidin PE. The ability of the anti-DR3 monoclonal antibody to inhibit binding of TL1A to DR3 was measured by flow cytometry.

[4] = 100 ng/mL hTL1A, 3 μg/mL test molecule

B1: H5L2-Fab: humanized anti-DR3 Fab, VH H5 (SEQ ID NO:17), VL L2 (SEQ ID NO:22, Leu at Kabat 104) (antibody, V domains shown)
VH: EVQLLQSGAEVKKPGASVKVSCKASGFTFTNYAMSWVRQAPGQRLEWVATITSGGSYIYYLDSVKGRFTISRDNAKSTLHLQMNSLRAEDTAVYNCARRKDGNYYYAMDYWGQGTTVTVSS
VL: DIVLTQSPSSLSASVGDRVTITCRASESVDSYGNSFIHWYQQKPGQPPKLLIYRASNLESGIPARFSGSGSRTDFTLTISSLQPEDFATYYCQQSYEDPWTFGGGTKXEIK
modifications: Fab constant domains; humanized murine antibody
For B1, the “inhibition of TL1A-induced apoptosis (TF-1 cell viability)” value (“inhibition of TL1A-induced apoptosis” for short) (human DR3 [1]) was “inhibited TL1A-induced apoptosis in TF-1 cells”.

B2: 11H08: mouse anti-human DR3 monoclonal antibody, isotype IgG1κ, from hybridoma 11H08; VH SEQ ID NO:7, VL SEQ ID NO:20 (antibody, listed as Mus musculus, V domains shown)
VH: EVMLVESGGGLVKPGGSLKLSCAASGFTFTNYAMSWVRQTPEKRLEWVATITSGGSYIYYLDSVKGRFTISRDNAKSTLYLQMSSLRSEDTAIYNCARRKDGNYYYAMDYWGQGTSVTVSS
VL: DIVLTQSPASLAVSLGQRATISCRASESVDSYGNSFIHWYQQKAGQPPKLLIYRASNLESGIPARFSGSGSRTDFTLTINPVEADDVATYYCQQSYEDPWTFGGGTKLEIK
For B2, the “proliferation and cytokine secretion (agonist activity)” value (primary human T cells; 3 μg/mL antibody alone) was “induced TL1A-like activity”, the “TF-1 cell viability / apoptosis induction (agonist, TL1A-like activity)” value (human DR3 [2]) was “activated the DR3 receptor, thereby inducing TL1A-like activity” and the “inhibition of human TL1A binding to human DR3” value (human DR3 [3]) was “inhibited human TL1A binding to the human DR3 receptor”.

B3: H1L2-Fab: humanized anti-DR3 Fab, VH H1 (SEQ ID NO:9), VL L2 (SEQ ID NO:22, Leu at Kabat 104) (antibody, V domains shown)
VH: B2 VH with M3Q, K19R, T40A, E42G, K43Q, A49S, S84N, S88A, I93V, S116T
VL: B1 VL
modifications: Fab constant domains; humanized murine antibody
In the case of B3, the “inhibition of TL1A-induced apoptosis” value (human DR3 [1]) is reported as “inhibited TL1A-induced apoptosis in TF-1 cells”.

B4: 11H08-Fab: Fab of 11H08 VH/VL (SEQ ID NOs:7, 20) with human IgG1 CH1 and Cκ; parental anti-DR3 molecule (antibody, listed as Mus musculus, V domains shown)
VH: B2 VH
VL: B2 VL
modifications: human IgG1 CH1 and Ckappa constant domains
notes: parental anti-DR3 molecule
With B4 the “inhibition of TL1A-induced apoptosis” value (human DR3 [1]) was “prevented TL1A-induced apoptosis; also recorded: inhibited TL1A-induced apoptosis in TF-1 cells”.

B5: hDR3-Fc: human DR3-Fc fusion protein, known to bind TL1A and inhibit activity (protein)
chain: QGGTRSPRCDCAGDFHKKIGLFCCRGCPAGHYLKAPCTEPCGNSTCLVCPQDTFLAWENHHNSECARCQACDEQASQVALENCSAVADTRCGCKPGWFVECQVSQCVSSSPFYCQPCLDCGALHRHTRLLCSRRDTDCGTCLPGFYEHGDGCVSCPTSTLGSCPERCAAVCGWRQ
modifications: left off: a dimerising Fc or GST
For B5, the TL1A-induced cell proliferation (primary human T cells; [4]) was “inhibited” and the “TL1A-induced cytokine secretion (IFNγ, GM-CSF)” value (primary human T cells; [4]) was “inhibited”.
